The target of assay [1] is PSGL-1 (residues 42-58) derived peptide, non-sulfated. As to the kind of experiment: peptide ELISA, 0.5 µg/well scFv. A general note: In an ELISA, binding on a coated surface is turned into a signal by an enzyme label.
For assay [2], the target named is CCR5 (residues 1-18) derived peptide, sulfated at 2nd tyrosine position. Put plainly: peptide ELISA, 0.5 µg/well scFv.
Assay [3] deals with GPIb (residues 268-285) derived peptide, sulfated at 3rd tyrosine position. Put plainly: peptide ELISA, 0.5 µg/well scFv.
The target of assay [4] is PSGL-1 (residues 42-58) derived peptide, sulfated at 3rd tyrosine position. As to the kind of experiment: peptide ELISA, 0.5 µg/well scFv.
For assay [5], the target named is CCR5 (residues 1-18) derived peptide, non-sulfated. Put plainly: peptide ELISA, 0.5 µg/well scFv.
In assay [6] the target is CCR5 (residues 1-18) derived peptide, sulfated at 3rd tyrosine position. As to the kind of experiment: peptide ELISA, 0.5 µg/well scFv.
Assay [7] has as its target PSGL-1 (residues 42-58) derived peptide, sulfated at 2nd tyrosine position. Put plainly: peptide ELISA, 0.5 µg/well scFv.
Assay [8] has as its target GPIb (residues 268-285) derived peptide, non-sulfated. Put plainly: peptide ELISA, 0.5 µg/well scFv.
Assay [9] concerns the target CCR5 (residues 1-18) derived peptide, sulfated at 1st tyrosine position. As to the kind of experiment: peptide ELISA, 0.5 µg/well scFv.
The target in assay [10] is PSGL-1 (residues 42-58) derived peptide, sulfated at 1st tyrosine position. Put plainly: peptide ELISA, 0.5 µg/well scFv.
The target of assay [11] is GPIb (residues 268-285) derived peptide, sulfated at 1st tyrosine position. As to the kind of experiment: peptide ELISA, 0.5 µg/well scFv.
The target of assay [12] is GPIb on human platelets (human) (UniProt P07359). Put plainly: FACS on human platelets.
Assay [13] concerns the target GPIb (residues 268-285) derived peptide, sulfated at 1st tyrosine position. Put plainly: peptide ELISA, 0.5 µg/well scFv. The source holds these as a separate data set.
Assay [14] addresses PSGL-1 (residues 42-58) derived peptide, sulfated at 3rd tyrosine position. Put plainly: peptide ELISA, 0.5 µg/well scFv. This is another data set of the same source.
The target in assay [15] is CCR5 (residues 1-18) derived peptide, sulfated at 2nd tyrosine position. Put plainly: peptide ELISA, 0.5 µg/well scFv. The source holds these as a separate data set.
Assay [16] addresses GPIb (residues 268-285) derived peptide, sulfated at 3rd tyrosine position. Put plainly: peptide ELISA, 0.5 µg/well scFv. This is another data set of the same source.

Numbering of substitutions follows the chain as printed. Read-outs that look alike come from different tables or passages of the source.

Sequence of GPIb on human platelets (human) (P07359 17-652): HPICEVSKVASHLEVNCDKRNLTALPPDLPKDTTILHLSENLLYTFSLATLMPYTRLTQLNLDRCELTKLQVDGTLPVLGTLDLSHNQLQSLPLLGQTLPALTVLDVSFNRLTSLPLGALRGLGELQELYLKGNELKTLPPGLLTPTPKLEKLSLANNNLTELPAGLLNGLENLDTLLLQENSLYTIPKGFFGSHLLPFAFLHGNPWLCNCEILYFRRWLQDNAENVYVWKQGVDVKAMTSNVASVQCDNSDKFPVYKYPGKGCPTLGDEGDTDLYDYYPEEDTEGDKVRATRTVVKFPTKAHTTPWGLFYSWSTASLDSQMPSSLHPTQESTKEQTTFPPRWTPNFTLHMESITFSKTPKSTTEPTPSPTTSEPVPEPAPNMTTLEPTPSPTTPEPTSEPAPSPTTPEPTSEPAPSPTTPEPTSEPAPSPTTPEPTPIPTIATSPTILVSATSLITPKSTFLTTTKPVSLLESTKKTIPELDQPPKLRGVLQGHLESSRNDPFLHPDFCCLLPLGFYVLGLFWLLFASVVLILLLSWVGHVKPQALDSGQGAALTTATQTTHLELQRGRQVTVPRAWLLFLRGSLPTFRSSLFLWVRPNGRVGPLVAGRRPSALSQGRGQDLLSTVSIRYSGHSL

B1: S1 scFv (scFv)
scFv: EVQLVESGGGVVRPGGSLRLSCAASGFTFDLNPKVKHMWVRQAPGKGLEWVSGINWNGGSTGYADSVKGRFTISRDNAKNSLYLQMNSLRAEDTAVYYCARLRPPFLWGQGTLVTVSRGGGGSGGGGSGGGGSSELTQDPAVSVALGQTVRITCQGDSLRSYYASWYQQKPGQAPVLVIYGKNNRPSGIPDRFSGSSSGNTASLTITGAQAEDEADYYCNSRDSSGNHVVFGGGTKLTVLGAAAEQKLISEEDLNGAA
With B1, the ELISA read-out at 450 nm in assay [1] was 0.07 OD 450 nm; in [2], 0.3 OD 450 nm; in [3] it was 0.15 OD 450 nm; in assay [4] it was 0.8 OD 450 nm; in [5] it was 0.06 OD 450 nm; in [6], 0.07 OD 450 nm. The ELISA read-out at 450 nm came to 0.08 OD 450 nm in [7]; 0.07 OD 450 nm in assay [8]; 0.07 OD 450 nm in assay [9]; 0.1 OD 450 nm in assay [10]; 0.8 OD 450 nm in assay [11]. This molecule also showed a fold binding capacity relative to Y1 in assay [12] of 25 fold.

B2: S11 scFv (scFv)
scFv: B1 scFv with P104Y, L107F
As for B2, the ELISA read-out at 450 nm in assay [13] was 0.6 OD 450 nm; in assay [14], 0.7 OD 450 nm; in assay [15], 0.7 OD 450 nm; in assay [16], 0.3 OD 450 nm; in assay [1], 0.01 OD 450 nm; in assay [5], 0.08 OD 450 nm. Besides, the ELISA read-out at 450 nm in [8] worked out at 0.1 OD 450 nm.

The record behind these values is patent US20080274100A1.
